Reference: patent US20110009316A1

How the values were obtained:
MutAla = MutAla (UniProt P15692)
MutGln = MutGln (UniProt P15692)
[1] = target: VEGF165 wild type synthesized in COS-1 cells (UniProt P15692)
[2] = target: commercially available recombinant VEGF165 protein (R&D Systems) (UniProt P15692)
[3] = target: VEGF165 wild type synthesized in COS-1 cells (UniProt P15692); test: cell-based or functional assay
[4] = target: commercially available recombinant VEGF165 protein (R&D Systems) (UniProt P15692); test: cell-based or functional assay

Sequence of MutLys-Pro (chain, as listed by the source): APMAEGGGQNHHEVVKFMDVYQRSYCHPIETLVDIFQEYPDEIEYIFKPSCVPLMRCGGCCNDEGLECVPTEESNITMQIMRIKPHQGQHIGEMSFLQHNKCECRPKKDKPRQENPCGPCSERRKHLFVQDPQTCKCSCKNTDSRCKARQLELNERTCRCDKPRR
Sequence of MutPro (chain, as listed by the source): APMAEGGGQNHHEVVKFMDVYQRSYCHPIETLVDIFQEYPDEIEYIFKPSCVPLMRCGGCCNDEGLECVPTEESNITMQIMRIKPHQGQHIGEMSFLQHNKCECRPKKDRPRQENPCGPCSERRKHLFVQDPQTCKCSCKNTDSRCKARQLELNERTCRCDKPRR

loss of biological activity (BrdU incorporation into HUVE cells) 20 minutes after incubation with plasmin [3]	remaining biological activity (BrdU incorporation into HUVE cells) after 240 minutes with plasmin (% of the initial activity) [3]	loss of biological activity (BrdU incorporation into HUVE cells) 20 minutes after incubation with plasmin [4]	remaining biological activity (BrdU incorporation into HUVE cells) after 240 minutes with plasmin (% of the initial activity) [4]	Substance	degradation on incubation with plasmin [0.01 U/ml], Western blotting and immunodetection (MutAla)	degradation on incubation with plasmin [0.01 U/ml], Western blotting and immunodetection (MutGln)	degradation on incubation with plasmin [0.01 U/ml], Western blotting and immunodetection (MutLys-Pro)	degradation on incubation with plasmin [0.01 U/ml], Western blotting and immunodetection (MutPro)	degradation on incubation with plasmin [0.01 U/ml], Western blotting and immunodetection [1]	degradation on incubation with plasmin [0.01 U/ml], Western blotting and immunodetection [2]
				plasmin	the mutated protein shows no change in the migration behaviour up to 240 minutes after incubation	also show a comparable stability of the signal bands at 45 and 42 kDA after incubation with plasmid for 240 minutes	also show a comparable stability of the signal bands at 45 and 42 kDA after incubation with plasmid for 240 minutes	also show a comparable stability of the signal bands at 45 and 42 kDA after incubation with plasmid for 240 minutes	shows degradation of the growth factor after only 15 minutes	the degradation pattern is similar to that of the commercially obtainable VEGF165
> 20%	50	> 20%	50	plasmin (enzyme)						
